Experimental data as given in patent US20220298218A1 (ANTAG THERAPEUTICS, published 2022).
*1 amine or outer side, *2 acyl side, *3 side chain or, on linkers, in order; H or OH if unused. Where no end group is shown, it is not given here. Side-chain parts run from the residue outwards. The star is where a group is joined. C18 diacid = O=C(O)CCCCCCCCCCCCCCCCC(=O)*; C16 diacid = O=C(O)CCCCCCCCCCCCCCC(=O)*; γGlu = O=C(O)[C@H](CCC(=O)[*:2])N[*:1]; Stearoyl = CCCCCCCCCCCCCCCCCC(=O)*; AEEA = NCCOCCOCC(=O)O

B1: AT549 (peptide)
peptide: EGTFISDYSIAMDKIHQK([AEEA-AEEA-γGlu-C18 diacid])DFVNWLLAQKGKKNDW-NH2
modifications: N-terminus assumed
SMILES: CC[C@H](C)[C@H](NC(=O)[C@H](CO)NC(=O)[C@H](Cc1ccc(O)cc1)NC(=O)[C@H](CC(=O)O)NC(=O)[C@H](CO)NC(=O)[C@@H](NC(=O)[C@H](Cc1ccccc1)NC(=O)[C@@H](NC(=O)CNC(=O)[C@@H](N)CCC(=O)O)[C@@H](C)O)[C@@H](C)CC)C(=O)N[C@@H](C)C(=O)N[C@@H](CCSC)C(=O)N[C@@H](CC(=O)O)C(=O)N[C@@H](CCCCN)C(=O)N[C@H](C(=O)N[C@@H](Cc1c[nH]cn1)C(=O)N[C@@H](CCC(N)=O)C(=O)N[C@@H](CCCCNC(=O)COCCOCCNC(=O)COCCOCCNC(=O)CC[C@H](NC(=O)CCCCCCCCCCCCCCCCC(=O)O)C(=O)O)C(=O)N[C@@H](CC(=O)O)C(=O)N[C@@H](Cc1ccccc1)C(=O)N[C@H](C(=O)N[C@@H](CC(N)=O)C(=O)N[C@@H](Cc1c[nH]c2ccccc12)C(=O)N[C@@H](CC(C)C)C(=O)N[C@@H](CC(C)C)C(=O)N[C@@H](C)C(=O)N[C@@H](CCC(N)=O)C(=O)N[C@@H](CCCCN)C(=O)NCC(=O)N[C@@H](CCCCN)C(=O)N[C@@H](CCCCN)C(=O)N[C@@H](CC(N)=O)C(=O)N[C@@H](CC(=O)O)C(=O)N[C@@H](Cc1c[nH]c2ccccc12)C(N)=O)C(C)C)[C@@H](C)CC
B2: AT546 (peptide)
peptide: EGTFISDYSIAMDKIK([AEEA-AEEA-γGlu-Stearoyl])QQDFVNWLLAQKGKKNDW-OH
modifications: N-terminus assumed
SMILES: CCCCCCCCCCCCCCCCCC(=O)N[C@@H](CCC(=O)NCCOCCOCC(=O)NCCOCCOCC(=O)NCCCC[C@H](NC(=O)[C@@H](NC(=O)[C@H](CCCCN)NC(=O)[C@H](CC(=O)O)NC(=O)[C@H](CCSC)NC(=O)[C@H](C)NC(=O)[C@@H](NC(=O)[C@H](CO)NC(=O)[C@H](Cc1ccc(O)cc1)NC(=O)[C@H](CC(=O)O)NC(=O)[C@H](CO)NC(=O)[C@@H](NC(=O)[C@H](Cc1ccccc1)NC(=O)[C@@H](NC(=O)CNC(=O)[C@@H](N)CCC(=O)O)[C@@H](C)O)[C@@H](C)CC)[C@@H](C)CC)[C@@H](C)CC)C(=O)N[C@@H](CCC(N)=O)C(=O)N[C@@H](CCC(N)=O)C(=O)N[C@@H](CC(=O)O)C(=O)N[C@@H](Cc1ccccc1)C(=O)N[C@H](C(=O)N[C@@H](CC(N)=O)C(=O)N[C@@H](Cc1c[nH]c2ccccc12)C(=O)N[C@@H](CC(C)C)C(=O)N[C@@H](CC(C)C)C(=O)N[C@@H](C)C(=O)N[C@@H](CCC(N)=O)C(=O)N[C@@H](CCCCN)C(=O)NCC(=O)N[C@@H](CCCCN)C(=O)N[C@@H](CCCCN)C(=O)N[C@@H](CC(N)=O)C(=O)N[C@@H](CC(=O)O)C(=O)N[C@@H](Cc1c[nH]c2ccccc12)C(=O)O)C(C)C)C(=O)O
B3: AT548 (peptide)
peptide: EGTFISDYSIAMDKIHQK([AEEA-AEEA-γGlu-C18 diacid])DFVNWLLAQKGKKNDW-OH
modifications: N-terminus assumed
SMILES: CC[C@H](C)[C@H](NC(=O)[C@H](CO)NC(=O)[C@H](Cc1ccc(O)cc1)NC(=O)[C@H](CC(=O)O)NC(=O)[C@H](CO)NC(=O)[C@@H](NC(=O)[C@H](Cc1ccccc1)NC(=O)[C@@H](NC(=O)CNC(=O)[C@@H](N)CCC(=O)O)[C@@H](C)O)[C@@H](C)CC)C(=O)N[C@@H](C)C(=O)N[C@@H](CCSC)C(=O)N[C@@H](CC(=O)O)C(=O)N[C@@H](CCCCN)C(=O)N[C@H](C(=O)N[C@@H](Cc1c[nH]cn1)C(=O)N[C@@H](CCC(N)=O)C(=O)N[C@@H](CCCCNC(=O)COCCOCCNC(=O)COCCOCCNC(=O)CC[C@H](NC(=O)CCCCCCCCCCCCCCCCC(=O)O)C(=O)O)C(=O)N[C@@H](CC(=O)O)C(=O)N[C@@H](Cc1ccccc1)C(=O)N[C@H](C(=O)N[C@@H](CC(N)=O)C(=O)N[C@@H](Cc1c[nH]c2ccccc12)C(=O)N[C@@H](CC(C)C)C(=O)N[C@@H](CC(C)C)C(=O)N[C@@H](C)C(=O)N[C@@H](CCC(N)=O)C(=O)N[C@@H](CCCCN)C(=O)NCC(=O)N[C@@H](CCCCN)C(=O)N[C@@H](CCCCN)C(=O)N[C@@H](CC(N)=O)C(=O)N[C@@H](CC(=O)O)C(=O)N[C@@H](Cc1c[nH]c2ccccc12)C(=O)O)C(C)C)[C@@H](C)CC
B4: AT545 (peptide)
peptide: EGTFISDYSIAMDKIK([AEEA-AEEA-γGlu-C18 diacid])QQDFVNWLLAQKGKKNDW-NH2
modifications: N-terminus assumed
SMILES: CC[C@H](C)[C@H](NC(=O)[C@H](CO)NC(=O)[C@H](Cc1ccc(O)cc1)NC(=O)[C@H](CC(=O)O)NC(=O)[C@H](CO)NC(=O)[C@@H](NC(=O)[C@H](Cc1ccccc1)NC(=O)[C@@H](NC(=O)CNC(=O)[C@@H](N)CCC(=O)O)[C@@H](C)O)[C@@H](C)CC)C(=O)N[C@@H](C)C(=O)N[C@@H](CCSC)C(=O)N[C@@H](CC(=O)O)C(=O)N[C@@H](CCCCN)C(=O)N[C@H](C(=O)N[C@@H](CCCCNC(=O)COCCOCCNC(=O)COCCOCCNC(=O)CC[C@H](NC(=O)CCCCCCCCCCCCCCCCC(=O)O)C(=O)O)C(=O)N[C@@H](CCC(N)=O)C(=O)N[C@@H](CCC(N)=O)C(=O)N[C@@H](CC(=O)O)C(=O)N[C@@H](Cc1ccccc1)C(=O)N[C@H](C(=O)N[C@@H](CC(N)=O)C(=O)N[C@@H](Cc1c[nH]c2ccccc12)C(=O)N[C@@H](CC(C)C)C(=O)N[C@@H](CC(C)C)C(=O)N[C@@H](C)C(=O)N[C@@H](CCC(N)=O)C(=O)N[C@@H](CCCCN)C(=O)NCC(=O)N[C@@H](CCCCN)C(=O)N[C@@H](CCCCN)C(=O)N[C@@H](CC(N)=O)C(=O)N[C@@H](CC(=O)O)C(=O)N[C@@H](Cc1c[nH]c2ccccc12)C(N)=O)C(C)C)[C@@H](C)CC
B5: AT631 (peptide)
peptide: EGTFISDYSIAMDKIK(C16 diacid)QQDFVNWLLAQKPSSGAPPPS-OH
modifications: N-terminus assumed
SMILES: CC[C@H](C)[C@H](NC(=O)[C@H](CO)NC(=O)[C@H](Cc1ccc(O)cc1)NC(=O)[C@H](CC(=O)O)NC(=O)[C@H](CO)NC(=O)[C@@H](NC(=O)[C@H](Cc1ccccc1)NC(=O)[C@@H](NC(=O)CNC(=O)[C@@H](N)CCC(=O)O)[C@@H](C)O)[C@@H](C)CC)C(=O)N[C@@H](C)C(=O)N[C@@H](CCSC)C(=O)N[C@@H](CC(=O)O)C(=O)N[C@@H](CCCCN)C(=O)N[C@H](C(=O)N[C@@H](CCCCNC(=O)CCCCCCCCCCCCCCC(=O)O)C(=O)N[C@@H](CCC(N)=O)C(=O)N[C@@H](CCC(N)=O)C(=O)N[C@@H](CC(=O)O)C(=O)N[C@@H](Cc1ccccc1)C(=O)N[C@H](C(=O)N[C@@H](CC(N)=O)C(=O)N[C@@H](Cc1c[nH]c2ccccc12)C(=O)N[C@@H](CC(C)C)C(=O)N[C@@H](CC(C)C)C(=O)N[C@@H](C)C(=O)N[C@@H](CCC(N)=O)C(=O)N[C@@H](CCCCN)C(=O)N1CCC[C@H]1C(=O)N[C@@H](CO)C(=O)N[C@@H](CO)C(=O)NCC(=O)N[C@@H](C)C(=O)N1CCC[C@H]1C(=O)N1CCC[C@H]1C(=O)N1CCC[C@H]1C(=O)N[C@@H](CO)C(=O)O)C(C)C)[C@@H](C)CC
B6: AT547 (peptide)
peptide: EGTFISDYSIAMDKIKQQDFVNWLLAQKGKKNDW
HELM: PEPTIDE1{E.G.T.F.I.S.D.Y.S.I.A.M.D.K.I.K.Q.Q.D.F.V.N.W.L.L.A.Q.K.G.K.K.N.D.W}|PEPTIDE2{[CCCCCCCCCCCCCCCCCC(=O)[*:2]].[gGlu].[gGlu]}$PEPTIDE1,PEPTIDE2,16:R3-3:R2$$$V2.0; N-terminus assumed
SMILES: CCCCCCCCCCCCCCCCCC(=O)N[C@@H](CCC(=O)N[C@@H](CCC(=O)NCCCC[C@H](NC(=O)[C@@H](NC(=O)[C@H](CCCCN)NC(=O)[C@H](CC(=O)O)NC(=O)[C@H](CCSC)NC(=O)[C@H](C)NC(=O)[C@@H](NC(=O)[C@H](CO)NC(=O)[C@H](Cc1ccc(O)cc1)NC(=O)[C@H](CC(=O)O)NC(=O)[C@H](CO)NC(=O)[C@@H](NC(=O)[C@H](Cc1ccccc1)NC(=O)[C@@H](NC(=O)CNC(=O)[C@@H](N)CCC(=O)O)[C@@H](C)O)[C@@H](C)CC)[C@@H](C)CC)[C@@H](C)CC)C(=O)N[C@@H](CCC(N)=O)C(=O)N[C@@H](CCC(N)=O)C(=O)N[C@@H](CC(=O)O)C(=O)N[C@@H](Cc1ccccc1)C(=O)N[C@H](C(=O)N[C@@H](CC(N)=O)C(=O)N[C@@H](Cc1c[nH]c2ccccc12)C(=O)N[C@@H](CC(C)C)C(=O)N[C@@H](CC(C)C)C(=O)N[C@@H](C)C(=O)N[C@@H](CCC(N)=O)C(=O)N[C@@H](CCCCN)C(=O)NCC(=O)N[C@@H](CCCCN)C(=O)N[C@@H](CCCCN)C(=O)N[C@@H](CC(N)=O)C(=O)N[C@@H](CC(=O)O)C(=O)N[C@@H](Cc1c[nH]c2ccccc12)C(=O)O)C(C)C)C(=O)O)C(=O)O

These binders were tested against T1, human GIP receptor (human, UniProt P48546 22-466) (assay: cell-based or functional assay).
T1 sequence (looked up): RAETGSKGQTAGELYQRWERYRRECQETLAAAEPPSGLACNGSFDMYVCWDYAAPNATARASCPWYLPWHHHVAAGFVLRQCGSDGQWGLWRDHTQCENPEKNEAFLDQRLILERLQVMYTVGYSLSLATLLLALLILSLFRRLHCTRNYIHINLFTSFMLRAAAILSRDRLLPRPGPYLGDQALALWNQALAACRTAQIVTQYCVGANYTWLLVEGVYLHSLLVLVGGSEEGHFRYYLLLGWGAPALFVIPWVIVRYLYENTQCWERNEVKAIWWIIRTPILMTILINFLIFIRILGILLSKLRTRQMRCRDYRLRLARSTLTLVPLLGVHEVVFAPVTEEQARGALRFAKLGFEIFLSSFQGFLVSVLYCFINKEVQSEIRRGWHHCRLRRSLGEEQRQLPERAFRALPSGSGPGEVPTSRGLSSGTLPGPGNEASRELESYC

What does the source list for B1?
cAMP agonism % Emax: 0%; cAMP antagonism: 200 nM; cAMP antagonism % inhib: 80%; cAMP antagonism pIC50: 6.7

For TFISDYK([AEEA-AEEA-γGlu-C18])IAMDKIHQQDFVNWLLAQKGKKNDW-OH [AT560], which “cAMP antagonism” value is on record?
The value was 23.3 nM.

And the “cAMP antagonism % inhib” value?
The value was 100%.

And the “cAMP antagonism pIC50” value?
The value was 7.6.

What does the source list for B2?
cAMP agonism % Emax: 0%; cAMP antagonism: 12.6 nM; cAMP antagonism % inhib: 95%; cAMP antagonism pIC50: 7.9

What does the source list for B3?
cAMP agonism % Emax: 0%; cAMP antagonism: 126 nM; cAMP antagonism % inhib: 86%; cAMP antagonism pIC50: 6.9

With B4 as the binder, how does the “cAMP agonism % Emax” value read?
Its value is 0%.

And the “cAMP antagonism” value?
The value was 17.8 nM.

What about the “cAMP antagonism % inhib” value of the same binder?
Its value is 77%.

What about the “cAMP antagonism pIC50” value of the same binder?
The value was 7.8.

Which “cAMP agonism % Emax” value does the source give for B5 here?
Its value is 0%.

For B6, which “cAMP agonism % Emax” value is on record?
The value was 0%.

And the “cAMP antagonism” value?
Its value is 7.94 nM.

And the “cAMP antagonism % inhib” value?
Its value is 100%.

And the “cAMP antagonism pIC50” value?
The value was 8.1.

With TFISDYK([γGlu-γGlu-C18])IAMDKIHQQDFVNWLLAQKGKKNDW-OH [AT561] as the binder, how does the “cAMP agonism % Emax” value read?
The value was 0%.

And the “cAMP antagonism” value?
The value was 11.2 nM.

And the “cAMP antagonism % inhib” value?
The value was 97%.

And the “cAMP antagonism pIC50” value?
Its value is 8.
